Several values for one entry are separate records, joined by “and”; a condition that tells them apart may be missing. Identical values can stand only once.
Tests used:
[1] = Bioconversion of eugenol to vanillin: one-pot concurrent cascade EUGO + alkene cleavage oxygenase (5 mM scale); format: biochemical; conditions: 5 mM 1a; for Reaction composition at 24 hours (%) 1a / Reaction composition at 24 hours (%) 2a / Reaction composition at 24 hours (%) 3a / Reaction composition at 24 hours (%) 5a / Conversion of 1a to 3a (%): EUGO fresh CFE 1 mg/mL, IECO 0 mg/mL; for Conversion of 1a to 3a (%): 24 h
Experimental: Stock solutions of eugenol (100 mM) were prepared in ethanol or DMSO and stored at −20° C. Unless otherwise stated, the reaction mixtures (0.5 mL) were set up in 1.5 mL glass vials as follows: freeze-dried cell free extract of IECO/CO-XX (3 mg) and EUGO (0.5 mg) were dissolved in the reaction buffer (50 mM glycine-NaOH pH 9.0) containing sodium ascorbate (1 mM), FeSO4 (1 mM) and bovine liver catalase (5 mg, Sigma Aldrich C40). The reaction was initiated by the addition of 0.025 mL eugenol stock (final concentration 5 mM), then incubated at 30° C. and 120 rpm overnight (rotary shaker). The final content of cosolvent was 5% v/v. To improve oxygenation, the vials were placed horizontally. At certain time points, samples (0.2 mL) were quenched with methanol (0.4 mL) and the mixture was centrifuged at 20238 g for 5-10 mins. Finally, the supernatant was analysed by HPLC.
EUGO (0.5 mg CFE), CO-25 (3 mg CFE) and catalase (5 mg, Sigma product #C40) were dissolved in 50 mM Glycine-NaOH pH 9.0 or Tris-HCl pH 8.0 together with FeSO4 (1 mM) and sodium ascorbate (1 mM). Note that the buffer content of the freeze-dried biocatalyst prep was not considered for the assembling of the reaction. The reaction was started by the addition of 5 mM eugenol from a 20× stock in ethanol. The reactions—performed in glass vials—were then incubated at 30° C. and 120 rpm (25 mm shaker). Finally, samples of the reaction mixture were diluted with MeOH and analyzed by HPLC at 280 and 340 nm.

[2] = Biotransformation of eugenol to coniferyl alcohol by EUGO (50 mM scale); format: biochemical
Experimental: The biotransformation (total volume 3 mL) was performed in a 10 mL round bottom flask with a stir bar. Eugenol (0.023 mL, 25 mg, 0.15 mmol, 1.0 equiv., 50 mM final conc.) was dissolved in DMSO or ethanol (0.150 mL). Then, the solution was diluted with Tis-HCl buffer (50 mM, pH 8.0, 2.827 mL). To obtain a homogeneous dispersion of the eugenol droplets, the mixture was stirred for about 15-20 mins. Then bovine liver catalase (Sigma P #C40, 30 mg, 2300 kU) and EUGO (30 mg of freeze-dried cell free extract, Tris base salt content was neglected) were added consecutively (note: EUGO was added after the catalase was completely dissolved). The reaction was incubated at room temperature and gentle stirring (40 rpm) for 17-24 hours. At certain time points, samples (0.1 mL) were diluted with methanol (0.8 mL, 8 vol equiv.) for stopping the reaction. The samples were centrifuged at 20238×g for 10 mins and the supernatant was analyzed by HPLC. When the reaction was completed, the products were extracted with ethyl acetate (3×1.5 mL EtOAc, in 2 mL microcentrifuge tubes). The aqueous and organic phases were separated by centrifugation (20238×g for ˜3 mins). Then, the organic phase was dried with NaSO4 and concentrated under reduced pressure (40° C., 200 mbar), but not dried completely to avoid polymerization. The concentrate was directly purified by silica gel chromatography (10 mL column volume) using a mixture of 1:1 etylacetate:cyclohexane as eluent. Fractions containing coniferyl alcohol (according to TLC) were combined and concentrated under reduced pressure (40° C., 200 mbar). Final drying under high vacuum (1.5 mbar) and inert gas flow yielded the title compound as yellowish solid (24.2 mg, 0.134 mmol, 90% yield). Notes: The obtained product was stored at −20° C. under inert gas atmosphere. Evaporation of a product solution in chloroform induced polymerization, therefore, no crude NMR was taken before product purification.

[3] = EUGO FD-CFE 10 mg/mL, eugenol 50 mM, catalase 10 mg/mL, pH 8.0, 5% v/v DMSO, room temperature, 17 hours
[4] = EUGO FD-CFE 10 mg/mL, eugenol 50 mM, catalase 10 mg/mL, pH 8.0, 5% v/v DMSO, room temperature, 24 hours

Reaction composition at 24 hours (%) 1a ([1]; cosolvent DMSO 5% v/v): 1≤ %
Reaction composition at 24 hours (%) 2a ([1]; cosolvent DMSO 5% v/v): 96%
Reaction composition at 24 hours (%) 3a ([1]; cosolvent DMSO 5% v/v): 1≤ %
Reaction composition at 24 hours (%) 5a ([1]; cosolvent DMSO 5% v/v): 2%
Reaction composition at 24 hours (%) 1a ([1]; cosolvent EtOH 5% v/v): 1≤ %
Reaction composition at 24 hours (%) 2a ([1]; cosolvent EtOH 5% v/v): 97%
Reaction composition at 24 hours (%) 3a ([1]; cosolvent EtOH 5% v/v): 1≤ %
Reaction composition at 24 hours (%) 5a ([1]; cosolvent EtOH 5% v/v): 2%
time in which the oxidation step (1a to 2a) occurs ([1]; one pot concurrent cascade EUGO-IECO, time studies): within the first two hours
B1: EUGO: eugenol oxidase from Rhodococcus jostii (Uniprot: Q0SBK1), SEQ ID NO: 2, used as cell free extract (protein)
chain: MTRTLPPGVSDERFDAALQRFRDVVGDKWVLSTADELEAFRDPYPVGAAEANLPSAVVSPESTEQVQDIVRIANEYGIPLSPVSTGKNNGYGGAAPRLSGSVIVKTGERMNRILEVNEKYGYALLEPGVTYFDLYEYLQSHDSGLMLDCPDLGWGSVVGNTLDRGVGYTPYGDHFMWQTGLEVVLPQGEVMRTGMGALPGSDAWQLFPYGFGPFPDGMFTQSNLGIVTKMGIALMQRPPASQSFLITFDKEEDLEQIVDIMLPLRINMAPLQNVPVLRNIFMDAAAVSKRTEWFDGDGPMPAEAIERMKKDLDLGFWNFYGTLYGPPPLIEMYYGMIKEAFGKIPGARFFTHEERDDRGGHVLQDRHKINNGIPSLDELQLLDWVPNGGHIGFSPVSAPDGREAMKQFEMVRNRANEYNKDYAAQFIIGLREMHHVCLFIYDTAIPEAREEILQMTKVLVREAAEAGYGEYRTHNALMDDVMATFNWGDGALLKFHEKIKDALDPNGIIAPGKSGIWSQRFRGQNL
modifications: cell free extract; Rhodococcus Jostii
Conversion of 1a to 3a (%) ([1]; cosolvent DMSO 5% v/v): 1≤ %
Conversion of 1a to 3a (%) ([1]; cosolvent EtOH 5% v/v): 1≤ %
2a [2, 3]: 48 mM and 41 mM
Reaction composition (%) 2a [2, 3]: 95% and 76%
Reaction composition (%) 5a [2, 3]: 4% and 3%
2a [2, 4]: 50 mM
Reaction composition (%) 1a [2, 4]: 0%
Reaction composition (%) 2a [2, 4]: 95%
Reaction composition (%) 5a [2, 4]: 5%
time within which the substrate was consumed ([2]; EUGO cell free extract, 50 mM 1a): ≤ 24 h

— patent publication US20260176659A1, “IMPROVED METHOD FOR THE PRODUCTION OF NATURAL VANILLIN” (BASE SE, priority 2022, published 2026)
